The supplement of paper PMC10567573

B1: ZBTB22 (parent)
chain: HTGLKPYECGVCAKKFMWRDSFMR
B2: RSPH3 (parent)
chain: VDVQTELYLEEIADRIIEVDMECQ

Variants of: B1
Experiment: protein stability index of a GFP-peptide fusion (GPS, HEK-293T) (PSI 1-6); higher = more stable
Conditions: c terminus: a fixed tail appended
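Also: lentivirally expressed fusions sorted by FACS into six bins by GFP to DsRed ratio, PSI derived from sequencing read proportions per bin multiplied by bin number.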

Variant	protein stability index
HTGLKPYECGVCAKKFMWRDWFMR [S21W]	2.84
HTGLKPYECGVCAKKFMWRDQFMR [S21Q]	1.83
HTGLKPYECGVCAKKFMWRDPFMR [S21P]	3.07
HTGLKPYECGVCAKKFMWRDYFMR [S21Y]	2.58
HTGLKPYECGVCAKKFMWRDIFMR [S21I]	2.32
HTGLKPYECGVCAKKFMWRDLFMR [S21L]	3.24
HTGLKPYECGVCAKKFMWRDNFMR [S21N]	1.49
HTGLKPYECGVCAKKFMWRDRFMR [S21R]	1.08
HTGLKPYECGVCAKKFMWRDTFMR [S21T]	1.73
HTGLKPYECGVCAKKFMWRDVFMR [S21V]	2.1
HTGLKPYECGVCAKKFMWRDSFTR [M23T]	2.71
HTGLKPYECGVCAKKFMWRDSFWR [M23W]	2.22
HTGLKPYECGVCAKKFMWRDSFRR [M23R]	2.64
HTGLKPYECGVCAKKFMWRDSFAR [M23A]	3.12
HTGLKPYECGVCAKKFMWRDSFYR [M23Y]	2.82
HTGLKPYECGVCAKKFMWRDSFIR [M23I]	1.88
HTGLKPYECGVCAKKFMWRDSFLR [M23L]	1.85
HTGLKPYECGVCAKKFMWRDSFSR [M23S]	2.46
HTGLKPYECGVCAKKFMWRDSFVR [M23V]	1.96

Variant	protein stability index
HTGLKPYECGVCAKKFMWRDSFKR [M23K]	1.92
HTGLKPYECGVCAKKFMWRDSFER [M23E]	4.04
HTGLKPYECGVCAKKFMWRDSFHR [M23H]	2.79
HTGLKPYECGVCAKKFMWRDSFQR [M23Q]	3.15
HTGLKPYECGVCAKKFMWRDSFFR [M23F]	2.41
HTGLKPYECGVCAKKFMWRDSFPR [M23P]	2.28
HTGLKPYECGVCAKKFMWRDSFGR [M23G]	1.69
HTGLKPYECGVCAKKFMWRDSFNR [M23N]	2.22
HTGLKPYECGVCAKKFMWRDSKMR [F22K]	2.54
HTGLKPYECGVCAKKFMWRDSRMR [F22R]	1.56
HTGLKPYECGVCAKKFMWRDSQMR [F22Q]	3.48
HTGLKPYECGVCAKKFMWRDSDMR [F22D]	3.47
HTGLKPYECGVCAKKFMWRDSCMR [F22C]	2.21
HTGLKPYECGVCAKKFMWRDSWMR [F22W]	1.53
HTGLKPYECGVCAKKFMWRDSAMR [F22A]	1.79
HTGLKPYECGVCAKKFMWRDSYMR [F22Y]	1.89
HTGLKPYECGVCAKKFMWRDSTMR [F22T]	1.74
HTGLKPYECGVCAKKFMWRDSLMR [F22L]	2.46
HTGLKPYECGVCAKKFMWRDSSMR [F22S]	1.66

Variant	protein stability index
HTGLKPYECGVCAKKFMWRDSHMR [F22H]	1.45
HTGLKPYECGVCAKKFMWRDSEMR [F22E]	3.96
HTGLKPYECGVCAKKFMWRDSNMR [F22N]	1.49
HTGLKPYECGVCAKKFMWRDSPMR [F22P]	2.07
HTGLKPYECGVCAKKFMWRDSFMK [R24K]	1.71
HTGLKPYECGVCAKKFMWRDSFMD [R24D]	1.37
HTGLKPYECGVCAKKFMWRDSFMM [R24M]	3.19
HTGLKPYECGVCAKKFMWRDSFMS [R24S]	2.96
HTGLKPYECGVCAKKFMWRDSFML [R24L]	3.44
HTGLKPYECGVCAKKFMWRDSFMH [R24H]	3.35
HTGLKPYECGVCAKKFMWRDSFMG [R24G]	1.87
HTGLKPYECGVCAKKFMWRDSFMT [R24T]	3.9
HTGLKPYECGVCAKKFMWRDSFMN [R24N]	3.03
HTGLKPYECGVCAKKFMWRDSFMF [R24F]	2.3
HTGLKPYECGVCAKKFMWRDSFMI [R24I]	1.79
HTGLKPYECGVCAKKFMWRDSFMC [R24C]	2.94
HTGLKPYECGVCAKKFMWRDSFMW [R24W]	1.67
HTGLKPYECGVCAKKFMWRDSFMV [R24V]	2.82
HTGLKPYECGVCAKKFMWRDSFMQ [R24Q]	1.6

Variants of: B2
Experiment: as above
Conditions: c terminus: a fixed tail appended

Variant	protein stability index
VDTQTELYLEEIADRIIEVDMECQ [V3T]	2.92
VDCQTELYLEEIADRIIEVDMECQ [V3C]	2.35
VDMQTELYLEEIADRIIEVDMECQ [V3M]	2.26
VDYQTELYLEEIADRIIEVDMECQ [V3Y]	1.85
VDPQTELYLEEIADRIIEVDMECQ [V3P]	3.36
VDHQTELYLEEIADRIIEVDMECQ [V3H]	2.4
VDKQTELYLEEIADRIIEVDMECQ [V3K]	2.7
VDRQTELYLEEIADRIIEVDMECQ [V3R]	3.38
VDGQTELYLEEIADRIIEVDMECQ [V3G]	3.74
VDNQTELYLEEIADRIIEVDMECQ [V3N]	2.99
VDLQTELYLEEIADRIIEVDMECQ [V3L]	3.01
VDWQTELYLEEIADRIIEVDMECQ [V3W]	2.14
VDAQTELYLEEIADRIIEVDMECQ [V3A]	3.22
VDSQTELYLEEIADRIIEVDMECQ [V3S]	2.56
VDQQTELYLEEIADRIIEVDMECQ [V3Q]	3.04
VDDQTELYLEEIADRIIEVDMECQ [V3D]	2.66
VDEQTELYLEEIADRIIEVDMECQ [V3E]	2.66
VDVQTELCLEEIADRIIEVDMECQ [Y8C]	3.04
VDVQTELQLEEIADRIIEVDMECQ [Y8Q]	4.25

Variant	protein stability index
VDVQTELELEEIADRIIEVDMECQ [Y8E]	4.48
VDVQTELALEEIADRIIEVDMECQ [Y8A]	4.03
VDVQTELNLEEIADRIIEVDMECQ [Y8N]	4
VDVQTELDLEEIADRIIEVDMECQ [Y8D]	4.25
VDVQTELILEEIADRIIEVDMECQ [Y8I]	1.71
VDVQTELGLEEIADRIIEVDMECQ [Y8G]	4.65
VDVQTELHLEEIADRIIEVDMECQ [Y8H]	3.85
VDVQTELPLEEIADRIIEVDMECQ [Y8P]	3.77
VDVQTELMLEEIADRIIEVDMECQ [Y8M]	2.34
VDVQTELFLEEIADRIIEVDMECQ [Y8F]	1.92
VDVQTSLYLEEIADRIIEVDMECQ [E6S]	2.39
VDVQTVLYLEEIADRIIEVDMECQ [E6V]	2.24
VDVQTLLYLEEIADRIIEVDMECQ [E6L]	1.65
VDVQTWLYLEEIADRIIEVDMECQ [E6W]	2.21
VDVQTRLYLEEIADRIIEVDMECQ [E6R]	2.52
VDVQTHLYLEEIADRIIEVDMECQ [E6H]	2.19
VDVQTQLYLEEIADRIIEVDMECQ [E6Q]	2.14
VDVQTPLYLEEIADRIIEVDMECQ [E6P]	3.41
